Measured values as given in US20110230406A1 (ADVANCED TECHNOLOGIES AND REGENERATIVE MEDICINE, published 2011).
No end group written: not given here.

B1: phage displaying the peptide of SEQ ID NO: 2 on the pIX minor coat protein (peptide)
peptide: AGPPGPYIAASAFLALK
modifications: also: displayed on phage pIX minor coat protein, junction not given here
notes: not shown: pIX minor coat protein of the phage that carries the peptide
B2: phage displaying the peptide of SEQ ID NO: 9 on the pIX minor coat protein (peptide)
peptide: AGSPCSPGQLPLCPA
modifications: cysteine pairing not given here; also: displayed on phage pIX minor coat protein
notes: as for B1
B3: phage displaying the peptide of SEQ ID NO: 1 on the pIX minor coat protein (peptide)
peptide: AGLPLQSMSRLSYDSLS
modifications: also: displayed on phage pIX minor coat protein, junction not given here
notes: as for B1
B4: phage displaying the peptide of SEQ ID NO: 14 on the pIX minor coat protein (peptide)
peptide: AGRECLPQFGLPLCPD
modifications: cysteine pairing not given here; also: displayed on phage pIX minor coat protein
notes: as for B1
B5: phage displaying the peptide of SEQ ID NO: 19 on the pIX minor coat protein (peptide)
peptide: AGTVCPPDLTGLTAACYY
modifications: cysteine pairing not given here; also: displayed on phage pIX minor coat protein
notes: as for B1
B6: phage displaying the peptide of SEQ ID NO: 10 on the pIX minor coat protein (peptide)
peptide: AGLQCSPPLPLYCEP
modifications: cysteine pairing not given here; also: displayed on phage pIX minor coat protein
notes: as for B1
B7: phage displaying the peptide of SEQ ID NO: 8 on the pIX minor coat protein (peptide)
peptide: AGSWCTHPAIGCLS
modifications: cysteine pairing not given here; also: displayed on phage pIX minor coat protein
notes: as for B1
B8: phage displaying the peptide of SEQ ID NO: 21 on the pIX minor coat protein (peptide)
peptide: AGIRCPVDAIGLTANCSY
modifications: cysteine pairing not given here; also: displayed on phage pIX minor coat protein
notes: as for B1
B9: phage displaying the peptide of SEQ ID NO: 22 on the pIX minor coat protein (peptide)
peptide: AGRSCYREPSTMLYACTA
modifications: cysteine pairing not given here; also: displayed on phage pIX minor coat protein
notes: as for B1
B10: phage displaying the peptide of SEQ ID NO: 16 on the pIX minor coat protein (peptide)
peptide: AGPDCRLSPLQPAVCVW
modifications: cysteine pairing not given here; also: displayed on phage pIX minor coat protein
notes: as for B1
B11: phage displaying the peptide of SEQ ID NO: 5 on the pIX minor coat protein (peptide)
peptide: AGYRRPIQPGPEAVSLL
modifications: also: displayed on phage pIX minor coat protein, junction not given here
notes: as for B1
B12: phage displaying the peptide of SEQ ID NO: 11 on the pIX minor coat protein (peptide)
peptide: AGPRCPPMHFSVCLS
modifications: cysteine pairing not given here; also: displayed on phage pIX minor coat protein
notes: as for B1
B13: phage displaying the peptide of SEQ ID NO: 17 on the pIX minor coat protein (peptide)
peptide: AGAHCLRDHMGLTSCIP
modifications: cysteine pairing not given here; also: displayed on phage pIX minor coat protein
notes: as for B1
B14: phage displaying the peptide of SEQ ID NO: 20 on the pIX minor coat protein (peptide)
peptide: AGTLCGVDDYTGLTGCLA
modifications: cysteine pairing not given here; also: displayed on phage pIX minor coat protein
notes: as for B1
B15: phage displaying the peptide of SEQ ID NO: 18 on the pIX minor coat protein (peptide)
peptide: AGRLCHATVDGVAVGCLT
modifications: cysteine pairing not given here; also: displayed on phage pIX minor coat protein
notes: as for B1
B16: phage displaying the peptide of SEQ ID NO: 12 on the pIX minor coat protein (peptide)
peptide: AGASCSPGLHPLCPG
modifications: cysteine pairing not given here; also: displayed on phage pIX minor coat protein
notes: as for B1
B17: phage displaying the peptide of SEQ ID NO: 15 on the pIX minor coat protein (peptide)
peptide: AGSVCLAQYSATPLCPH
modifications: cysteine pairing not given here; also: displayed on phage pIX minor coat protein
notes: as for B1
B18: phage displaying the peptide of SEQ ID NO: 6 on the pIX minor coat protein (peptide)
peptide: AGRDSFNLLTSSPLPST
modifications: also: displayed on phage pIX minor coat protein, junction not given here
notes: as for B1
B19: phage displaying the peptide of SEQ ID NO: 13 on the pIX minor coat protein (peptide)
peptide: AGSTCIPSMTPLCPS
modifications: cysteine pairing not given here; also: displayed on phage pIX minor coat protein
notes: as for B1

Biological target: T1, human serum albumin (human, UniProt P02768 25-609)
T1 construct: Cross-reactivity control coated at 5 micrograms/mL; also called HSA
Experiment: phage ELISA, HSA-coated wells, HRP anti-M13 antibody, luminescence
Procedure: 96-well black ELISA plates were coated with streptavidin (Rows A through D), hIgG (Rows E and F) and human serum albumin (Rows G and H), at a concentration of 5 micrograms/mL in PBS. Plates were incubated overnight at 4° C. Plates were washed 3 times with TBST using a plate washer. To the streptavidin-coated wells in rows C and D, 100 microliters of a 4 micrograms/mL solution of biotinylated-BMP-2 (R&D Systems, Minneapolis, Minn., Item number 355-BM/CF), was introduced and allowed to sit at room temperature for 30 minutes. To all other wells, 100 microliters of PBS was introduced. The plates were again washed 3 times with TBST using the plate washer. The wells were then blocked with 250 microliters of a 3% dehydrated milk suspension in TBST and allowed to sit at room temperature for a minimum of 1 hour. Using phage concentrations determined by the phage titrations, dilutions of the phage stock solutions were performed in a separate 96-well plate to result in phage concentrations of 10¹⁰, 10⁹, 10⁸, 10⁷, 10⁶ and 10⁵ phage/well. After blocking, the ELISA plate was washed 3 times with TBST and 100 microliters of the phage dilutions were introduced to the respective ELISA plates and allowed to sit at room temperature for a minimum of 1 hour. The ELISA plate was again washed 3 times with TBST using the plate washer and 100 microliters of an HRP-conjugated Anti-M13 Phage Mab (1:5000 dilution in PBS) was introduced to each well. The plates were allowed to sit at room temperature for 1 hour after which time the plates were washed 3 times with TBST. Next, a POD HRP-substrate was introduced to each well. The luminescence was read using a luminometer set with a gain of 150.

Row | Binder | binding result
1 | B1 | no binding (tested: 10^9 phage/mL)
2 | B2 | no binding (tested: 10^9 phage/mL)
3 | B3 | no binding (tested: 10^9 phage/mL)
4 | B4 | no binding (tested: 10^9 phage/mL)
5 | B5 | no binding (tested: 10^9 phage/mL)
6 | B6 | no binding (tested: 10^9 phage/mL)
7 | B7 | no binding (tested: 10^9 phage/mL)
8 | B8 | no binding (tested: 10^9 phage/mL)
9 | B9 | no binding (tested: 10^9 phage/mL)
10 | B10 | no binding (tested: 10^9 phage/mL)
11 | B11 | no binding (tested: 10^9 phage/mL)
12 | B12 | no binding (tested: 10^9 phage/mL)
13 | B13 | no binding (tested: 10^9 phage/mL)
14 | B14 | no binding (tested: 10^9 phage/mL)
15 | B15 | no binding (tested: 10^9 phage/mL)
16 | B16 | no binding (tested: 10^9 phage/mL)
17 | B17 | no binding (tested: 10^9 phage/mL)
18 | B18 | no binding (tested: 10^9 phage/mL)
19 | B19 | no binding (tested: 10^9 phage/mL)

Biological target: T2, biotinylated BMP-2 (R&D Systems, Item number 355-BM/CF) (human, UniProt P12643 283-396, biotinylated (sites not given))
T2 construct: Bought protein, biotinylated, captured on streptavidin plates (phage ELISA) or streptavidin donor beads (ALPHA); also called bone morphogenic protein-2
Experiment: phage ELISA, biotinylated BMP-2 captured on streptavidin-coated wells, HRP anti-M13 antibody, luminescence

T2 sequence (P12643 283-396 limits assumed): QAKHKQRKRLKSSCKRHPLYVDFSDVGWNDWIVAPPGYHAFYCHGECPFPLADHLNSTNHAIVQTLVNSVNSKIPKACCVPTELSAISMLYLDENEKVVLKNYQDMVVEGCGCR

Row | Binder | binding result
20 | B1 | binds
21 | B2 | binds
22 | B3 | binds
23 | B4 | binds
24 | B5 | binds
25 | B6 | binds
26 | B7 | binds
27 | B8 | binds
28 | B9 | binds
29 | B10 | binds
30 | B11 | binds
31 | B12 | binds
32 | B13 | binds
33 | B14 | binds
34 | B15 | binds
35 | B16 | binds
36 | B17 | binds
37 | B19 | binds
